Data on 5 compounds can be found in PMC3861474 (PLoS ONE, 2013).

In assay [1] the target is N-acetyl-L-glutamate kinase (NAGK), His-tagged wild type (Synechococcus elongatus) (UniProt Q6V1L5).
The target in assay [2] is NAGK‑FL25‑C (NAGK fused by a flexible 25-residue linker to Cerulean) (Synechococcus elongatus) (UniProt Q6V1L5).
Assay [3] has as its target N-acetyl-L-glutamate kinase (NAGK), His-tagged wild type (Synechococcus elongatus) (UniProt Q6V1L5). This is another data set of the same source.
The target of a further assay is T1, NAGK‑FL25‑C + PII-ST‑V (Synechococcus elongatus, UniProt P0A3F4).
T1 construct: gene glnB; same FRET complex as P6 (Cerulean on NAGK C-terminus, Strep-tag and Venus on PII C-terminus), E. coli; compound site on PII; with Acetylglutamate kinase
T1 sequence (P0A3F4 whole entry): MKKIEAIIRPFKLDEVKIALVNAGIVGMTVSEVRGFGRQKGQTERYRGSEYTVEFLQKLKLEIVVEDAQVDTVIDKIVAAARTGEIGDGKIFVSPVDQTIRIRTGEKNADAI
T1 sequence (Q6V1L5 whole entry partner): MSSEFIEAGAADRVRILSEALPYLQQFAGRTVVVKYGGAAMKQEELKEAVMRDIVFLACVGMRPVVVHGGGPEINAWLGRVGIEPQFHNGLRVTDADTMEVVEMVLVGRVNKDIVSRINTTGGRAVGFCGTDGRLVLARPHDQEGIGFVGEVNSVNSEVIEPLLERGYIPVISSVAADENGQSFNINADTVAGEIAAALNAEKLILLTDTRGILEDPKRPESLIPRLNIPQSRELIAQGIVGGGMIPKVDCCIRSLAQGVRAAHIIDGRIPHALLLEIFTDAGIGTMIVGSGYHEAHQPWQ
Description: FRET dissociation of PII - NAGK complex, […] nm ratio. The class given is binding. Conditions: 0.1 mM ATP, 20 mM MgCl2, pH 7.5, 100 nM proteins, 30 min; competitive with ATP; a ratio, not a concentration.

Assay [4] deals with NAGK‑FL25‑C (NAGK fused by a flexible 25-residue linker to Cerulean) (Synechococcus elongatus) (UniProt Q6V1L5). The source holds these as a separate data set.
Assay [5] has the same target. Description: FRET or BRET; association kinetics: FRET ratio (525 nm / 475 nm emission) every 8 s, excitation 433 nm; NAGK-FL25-C preincubated at 37 °C, then PII-Venus variant added; 100 nM proteins; 0.1 mM ATP; ratio not background-subtracted (0.54 is the zero baseline). Background: In BRET a luciferase serves as donor, and the signal depends on an acceptor being close.

The target is the same in assay [6]. The assay is described as follows: FRET or BRET; FRET ratio of NAGK-FL25-C + PII-ST-V after addition of 2-OG (0.8 and 1.6 mM, the highest concentrations); 0.1 mM ATP; background subtracted and normalised.
The target is the same in assay [7]. Description: FRET or BRET; FRET ratio of NAGK-FL25-C + PII-ST-V with ADP 0.25 to 8 mM and 0.1 mM ATP (ADP/ATP ratio about 80 for the maximal drop); background subtracted and normalised.

Sequence of N-acetyl-L-glutamate kinase (NAGK), His-tagged wild type (Synechococcus elongatus) (Q6V1L5 whole entry, the tested form may be a part): as the sequence (Q6V1L5 whole entry partner) above
Sequence of NAGK‑FL25‑C (NAGK fused by a flexible 25-residue linker to Cerulean) (Synechococcus elongatus) (Q6V1L5 whole entry, the tested form may be a part): as the sequence (Q6V1L5 whole entry partner) above

“PII signal transduction protein, wild type (from UniProt P0A3F4 1-112) (natural protein)” yielded a relief of NAGK from arginine inhibition by PII: fold increase of the IC50 of arginine in the enzyme assay in assay [1] of 25 times. In assay [2], the Kcat of NAGK activity in the presence of PII (NAGK-FL25-C alone 41.36 s^-1) is 128 s⁻¹ and the Kcat/Km of NAGK activity in the presence of PII (NAGK-FL25-C alone 1.4E+04) amounted to 240000 M⁻¹ s⁻¹. Further, in assay [3], the Kcat of NAGK activity in the presence of PII (coupled NADH oxidation assay; NAGK-wt alone 38.8 s^-1) is 119 s⁻¹ and the Kcat/Km of NAGK activity in the presence of PII (NAGK-wt alone 1.2E+04) turned out to be 180000 M⁻¹ s⁻¹.
On to `Nc1ncnc2c1ncn2[C@@H]1O[C@H](COP(=O)(O)OP(=O)(O)O)[C@@H](O)[C@H]1O` [ADP], for which the “IC50 (ADP/ATP ratio)” value on NAGK‑FL25‑C + PII-ST‑V is given as ~ 10 ADP/ATP ratio.
In assay [4], “PII-S49G‑ST‑V (PII S49G, Strep-tag as linker, Venus) (from UniProt P0A3F4 1-112) (natural protein)” yielded a partial relief of NAGK from arginine inhibition by PII: fold increase of the IC50 of arginine in the enzyme assay of 8.5 times. The maximum FRET ratio (525 nm / 475 nm; zero baseline 0.54) in assay [5] was found to be 0.8. In assay [2], the Kcat of NAGK activity in the presence of PII (NAGK-FL25-C alone 41.36 s^-1) turned out to be 99.6 s⁻¹ and the Kcat/Km of NAGK activity in the presence of PII (NAGK-FL25-C alone 1.4E+04) came to 250000 M⁻¹ s⁻¹. Besides, in assay [3], the Kcat of NAGK activity in the presence of PII (NAGK-wt alone 38.8 s^-1) stood at 96.8 s⁻¹ and the Kcat/Km of NAGK activity in the presence of PII (NAGK-wt alone 1.2E+04) turned out to be 190000 M⁻¹ s⁻¹.
In the case of “PII-E85A‑ST‑V (PII E85A, Strep-tag as linker, Venus) (from UniProt P0A3F4 1-112) (natural protein)”, in assay [5], the maximum FRET ratio (525 nm / 475 nm; zero baseline 0.54) stood at 0.6.
“PII-ST‑V (PII, Strep-tag as linker, Venus) (from UniProt P0A3F4 1-112) (natural protein)”: the steady state FRET level above background with 0.8 and 1.6 mM 2-OG in assay [6] came out at 10%. In addition, the maximum FRET ratio (525 nm / 475 nm; zero baseline 0.54) in assay [5] was found to be 1.35. Moreover, in assay [2], the Kcat of NAGK activity in the presence of PII (NAGK-FL25-C alone 41.36 s^-1) worked out at 134 s⁻¹ and the Kcat/Km of NAGK activity in the presence of PII (NAGK-FL25-C alone 1.4E+04) worked out at 210000 M⁻¹ s⁻¹. In addition, in assay [3], the Kcat of NAGK activity in the presence of PII (NAGK-wt alone 38.8 s^-1) was found to be 123 s⁻¹ and the Kcat/Km of NAGK activity in the presence of PII (NAGK-wt alone 1.2E+04) came to 180000 M⁻¹ s⁻¹. In addition, the FRET level above baseline at the maximal drop (ADP/ATP ratio of about 80) in assay [7] came to 10%.
